# Measurements published in patent US20220025010A1 (ANTAG THERAPEUTICS, published 2022).
# *1 amine or outer side, *2 acyl side, *3 side chain or, on linkers, in order; H or OH if unused. Where no end group is shown, it is not given here. Side-chain parts run from the residue outwards. [ ]: non-standard residue; d: D form. The star is where a group is joined. C18 diacid = O=C(O)CCCCCCCCCCCCCCCCC(=O)*; C16 diacid = O=C(O)CCCCCCCCCCCCCCC(=O)*; γGlu = O=C(O)[C@H](CCC(=O)[*:2])N[*:1]; pGlu = O=C1CC[C@@H](C(=O)O)N1; AEEA = NCCOCCOCC(=O)O
# T1: human GIP receptor (human, UniProt P48546 22-466)
# T1 sequence (looked up): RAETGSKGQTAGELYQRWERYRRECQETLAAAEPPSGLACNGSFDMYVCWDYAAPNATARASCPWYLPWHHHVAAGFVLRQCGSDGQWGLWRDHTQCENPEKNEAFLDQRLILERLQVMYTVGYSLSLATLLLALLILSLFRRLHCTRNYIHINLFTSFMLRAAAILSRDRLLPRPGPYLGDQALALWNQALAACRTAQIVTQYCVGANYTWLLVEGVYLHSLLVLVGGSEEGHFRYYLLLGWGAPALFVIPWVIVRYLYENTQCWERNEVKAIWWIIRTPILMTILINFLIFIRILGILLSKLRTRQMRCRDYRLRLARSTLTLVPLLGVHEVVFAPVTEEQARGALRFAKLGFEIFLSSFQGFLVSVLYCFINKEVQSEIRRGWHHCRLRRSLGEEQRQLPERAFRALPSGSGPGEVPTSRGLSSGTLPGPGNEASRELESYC
# B1: AT273 (peptide)
# peptide: PGTFISDYSIAMDRIKQQDFVNWLLAQR
# HELM: PEPTIDE1{P.G.T.F.I.S.D.Y.S.I.A.M.D.R.I.K.Q.Q.D.F.V.N.W.L.L.A.Q.R}|PEPTIDE2{[O=C(O)CCCCCCCCCCCCCCC(=O)[*:2]].[gGlu].[O=C(COCCOCCN[*:1])[*:2]]}$PEPTIDE1,PEPTIDE2,16:R3-3:R2$$$V2.0; N-terminus assumed
# SMILES: CC[C@H](C)[C@H](NC(=O)[C@H](CO)NC(=O)[C@H](Cc1ccc(O)cc1)NC(=O)[C@H](CC(=O)O)NC(=O)[C@H](CO)NC(=O)[C@@H](NC(=O)[C@H](Cc1ccccc1)NC(=O)[C@@H](NC(=O)CNC(=O)[C@@H]1CCCN1)[C@@H](C)O)[C@@H](C)CC)C(=O)N[C@@H](C)C(=O)N[C@@H](CCSC)C(=O)N[C@@H](CC(=O)O)C(=O)N[C@@H](CCCNC(=N)N)C(=O)N[C@H](C(=O)N[C@@H](CCCCNC(=O)COCCOCCNC(=O)CC[C@H](NC(=O)CCCCCCCCCCCCCCC(=O)O)C(=O)O)C(=O)N[C@@H](CCC(N)=O)C(=O)N[C@@H](CCC(N)=O)C(=O)N[C@@H](CC(=O)O)C(=O)N[C@@H](Cc1ccccc1)C(=O)N[C@H](C(=O)N[C@@H](CC(N)=O)C(=O)N[C@@H](Cc1c[nH]c2ccccc12)C(=O)N[C@@H](CC(C)C)C(=O)N[C@@H](CC(C)C)C(=O)N[C@@H](C)C(=O)N[C@@H](CCC(N)=O)C(=O)N[C@@H](CCCNC(=N)N)C(=O)O)C(C)C)[C@@H](C)CC
# B2: AT275 (peptide)
# peptide: GGTFISDYSIAMDRIK([AEEA-AEEA-γGlu-C16 diacid])QQDFVNWLLAQR-OH
# modifications: N-terminus assumed
# SMILES: CC[C@H](C)[C@H](NC(=O)[C@H](CO)NC(=O)[C@H](Cc1ccc(O)cc1)NC(=O)[C@H](CC(=O)O)NC(=O)[C@H](CO)NC(=O)[C@@H](NC(=O)[C@H](Cc1ccccc1)NC(=O)[C@@H](NC(=O)CNC(=O)CN)[C@@H](C)O)[C@@H](C)CC)C(=O)N[C@@H](C)C(=O)N[C@@H](CCSC)C(=O)N[C@@H](CC(=O)O)C(=O)N[C@@H](CCCNC(=N)N)C(=O)N[C@H](C(=O)N[C@@H](CCCCNC(=O)COCCOCCNC(=O)COCCOCCNC(=O)CC[C@H](NC(=O)CCCCCCCCCCCCCCC(=O)O)C(=O)O)C(=O)N[C@@H](CCC(N)=O)C(=O)N[C@@H](CCC(N)=O)C(=O)N[C@@H](CC(=O)O)C(=O)N[C@@H](Cc1ccccc1)C(=O)N[C@H](C(=O)N[C@@H](CC(N)=O)C(=O)N[C@@H](Cc1c[nH]c2ccccc12)C(=O)N[C@@H](CC(C)C)C(=O)N[C@@H](CC(C)C)C(=O)N[C@@H](C)C(=O)N[C@@H](CCC(N)=O)C(=O)N[C@@H](CCCNC(=N)N)C(=O)O)C(C)C)[C@@H](C)CC
# B3: AT279 (peptide)
# peptide: PGTFISDYSIAMDRIK([AEEA-AEEA-γGlu-C16 diacid])QQDFVNWLLAQR-OH
# modifications: N-terminus assumed
# SMILES: CC[C@H](C)[C@H](NC(=O)[C@H](CO)NC(=O)[C@H](Cc1ccc(O)cc1)NC(=O)[C@H](CC(=O)O)NC(=O)[C@H](CO)NC(=O)[C@@H](NC(=O)[C@H](Cc1ccccc1)NC(=O)[C@@H](NC(=O)CNC(=O)[C@@H]1CCCN1)[C@@H](C)O)[C@@H](C)CC)C(=O)N[C@@H](C)C(=O)N[C@@H](CCSC)C(=O)N[C@@H](CC(=O)O)C(=O)N[C@@H](CCCNC(=N)N)C(=O)N[C@H](C(=O)N[C@@H](CCCCNC(=O)COCCOCCNC(=O)COCCOCCNC(=O)CC[C@H](NC(=O)CCCCCCCCCCCCCCC(=O)O)C(=O)O)C(=O)N[C@@H](CCC(N)=O)C(=O)N[C@@H](CCC(N)=O)C(=O)N[C@@H](CC(=O)O)C(=O)N[C@@H](Cc1ccccc1)C(=O)N[C@H](C(=O)N[C@@H](CC(N)=O)C(=O)N[C@@H](Cc1c[nH]c2ccccc12)C(=O)N[C@@H](CC(C)C)C(=O)N[C@@H](CC(C)C)C(=O)N[C@@H](C)C(=O)N[C@@H](CCC(N)=O)C(=O)N[C@@H](CCCNC(=N)N)C(=O)O)C(C)C)[C@@H](C)CC
# Molecular target: T1, human GIP receptor
# Experiment: cell-based or functional assay
Binder,CisBio cAMP agonism % Efficacy [%],DiscoveRx cAMP agonism Emax,DiscoveRx cAMP antagonism IC50 [nM],DiscoveRx cAMP antagonism log IC50 [log M],CisBio cAMP antagonism % inhib [%],CisBio cAMP antagonism IC50 [nM],CisBio cAMP antagonism pIC50,DiscoveRx cAMP antagonism % inhib [%]
B1,0,35,634,-6.2,–,–,–,–
B2,5,5,43,-7.4,66,126,6.9,–
[pGlu]GTFISDYSIAMDRIK([AEEA-AEEA-γGlu-C18 diacid])QQDFVNWLLAQR-NH2 [AT381],5,–,38,-7.4,74,13.6,7.9,100
B3,14,17,19,-7.7,81,159,6.8,–
[pGlu]GTFISDYSIAMDRIK(C18 diacid)QQDFVNWLLAQR-NH2 [AT391],0,–,10,-8,95,271,6.6,100
[pGlu]GTFISDYSIAMDRIK([AEEA-AEEA-γGlu-C16 diacid])QQDFVNWLLAQR-NH2 [AT379],0,–,8,-8.1,95,21.5,7.7,96
